From article PMC10569748
Values joined by “and” are separate entries in the source; they are usually repeats but may differ in a detail not shown here. Equal entries are not always repeated.

What was measured:
Cys = test: kinetics; conditions: free enzyme; cited from earlier work
His = test: kinetics; conditions: free enzyme; cited from earlier work
Cys25 [1] = target: T1, Cys25 (UniProt position 147, GQCGSCWAFSA); test: chemical modification; conditions: 25 °C (general statement for all assays); ligand-free enzyme
Cys25 [2] = target: T1, Cys25; test: kinetics; conditions: 25 °C; 0.1 (constant); free enzyme (kcat/Km profile)
His162 [3] = target: T2, His162 (UniProt position 284, SEQLDHGVLLV); test: kinetics; conditions: free enzyme (kcat/Km profile)
His162 [4] = target: T2, His162; test: NMR; conditions: Cys25 covalently modified by K11777; cited from earlier work
Cys25 [5] = target: Cys25 (UniProt position 158, GSCGSCWAFSA); test: chemical modification; conditions: free enzyme; cited from earlier work
His159 = His159 (UniProt position 292, GNKVDHAVAAV); test: chemical modification; conditions: free enzyme; cited from earlier work
[6] = test system: Cc1cc(=O)oc2cc(NC(=O)[C@H](CCCNC(=N)N)NC(=O)[C@H](Cc3ccccc3)NC(=O)OCc3ccccc3)ccc12; test: purified protein; conditions: pH 7.5, 25 °C, 2% DMSO, 5 mM DTT, 1 mM CHAPS, 1 mM EDTA
[7] = test system: Cc1cc(=O)oc2cc(NC(=O)[C@H](C)NC(=O)[C@H](CCCNC(=N)N)NC(=O)OCc3ccccc3)ccc12; test: purified protein; conditions: pH 7.5, 25 °C, 2% DMSO, 5 mM DTT, 1 mM CHAPS, 1 mM EDTA
[8] = test system: Cc1cc(=O)oc2cc(NC(=O)[C@H](CCCNC(=N)N)NC(=O)[C@H](CCCNC(=N)N)NC(=O)OCc3ccccc3)ccc12; test: purified protein; conditions: pH 7.5, 25 °C, 2% DMSO, 5 mM DTT, 1 mM CHAPS, 1 mM EDTA

## Cathepsin C (dipeptidyl peptidase I) (Homo sapiens)
Cys
  pKa: 4.3
His
  pKa: 6.5

## Cruzain (cruzipain catalytic domain) (Trypanosoma cruzi)
Cys25 [1]
  pKa: 9.76 ± 0.04
Cys25 [2]
  pKa: 9.6 ± 0.1
His162 [3]; 25 °C, 0.1 (constant), sticky substrate
  pKa: 6.2 ± 0.4 and 6.0 ± 0.1
His162 [3]; 25 °C
  pKa: 6.2 ± 0.1
His162 [3]; 40 °C
  pKa: 5.9 ± 0.1

## Cruzain covalently complexed with K11777 (Trypanosoma cruzi)
His162 [4]
  pKa: 5.2–5.3

## Papain (Carica papaya)
Cys25 [5]
  pKa: 4.0
His159
  pKa: 8.4

## cruzain (Trypanosoma cruzi)
[6]
  Km: 0.62 ± 0.02 µM
  kcat: 17 ± 2 s⁻¹
  kcat/Km: 2.7e+07 ± 4e+06 M⁻¹ s⁻¹
[7]
  Km: 38 ± 2 µM
  kcat: 0.89 ± 0.06 s⁻¹
  kcat/Km: 23000 ± 3000 M⁻¹ s⁻¹
[8]
  Km: 3.7 ± 0.4 µM
  kcat: 7.2 ± 0.1 s⁻¹
  kcat/Km: 1.9e+06 ± 200000 M⁻¹ s⁻¹
